# Measured values as given in paper PMC4786922, “Protein Delivery of an Artificial Transcription Factor Restores Widespread Ube3a Expression in an Angelman Syndrome Mouse Brain”.
# B1: S1 target site EMSA probe (dsDNA)
# DNA 1: CCTCTTCGCTATTACGCCAGCCATGCGTAGGGAGCCGCGGAACGTTCGATCGTACTCGAGTCAGGGTG
# DNA 2: CACCCTGACTCGAGTACGATCGAACGTTCCGCGGCTCCCTACGCATGGCTGGCGTAATAGCGAAGAGG
# Biological target: TAT-S1 (MBP-TAT-mCherry-HA-NLS-S1-KRAB) (artificial (designed))
# Test: EMSA; EMSA: ZBA buffer (composition not given), 0.05% NP-40, 0.1 mg/ml BSA, 10% glycerol, 35-75 pM target, 1.5 h at room temperature; pH not given
# Details: protein: recombinant, tags: N-terminal MBP, TAT(48-57), SV40 NLS, C-terminal KRAB, label: 5'-biotin on strand 1, blunt
binder,measurement,value
B1,Kd,8 ± 1.5 nM
